Measurements published in publication PMC8201785.

Tests used:
CA09 HA = experiment: BLI
PR34 HA = experiment: BLI

Substance MEDI8852 has a Kd (CA09 HA) of 502 pM, a koff (CA09 HA) of 0.000147 s⁻¹ and a Kd (PR34 HA) of 1360 pM. For the same substance, the koff (PR34 HA) was 0.00023 s⁻¹.
